Experimental data from article PMC8235110, “Effective Tumor Targeting by EphA2-Agonist-Biotin-Streptavidin Conjugates” (Molecules, 2021).
“Also recorded” adds a separate entry of the source. Square brackets hold non-standard residues; d marks the D form. Peptide text beside a SMILES is read from it. * marks the point of attachment. 4‑CH3‑Tyr = 4-CH3-Tyr: 4-methyl-tyrosine, a non-natural residue; 2Benzofuroyl(3-Me,6,7-diOMe) = COc1ccc2c(C)c(C(=O)*)oc2c1OC; Phe(4-Cl) = N[C@@H](Cc1ccc(Cl)cc1)C(=O)O; Hyp = O=C(O)[C@@H]1C[C@@H](O)CN1

Experiments:
[1] = biological target: T1, purified EphA2-LBD (Homo sapiens, UniProt P29317); test: reverse isothermal titration calorimetry (ITC); type: binding; details: reverse ITC titration with purified EphA2-LBD
T1 construct: made in house

[2] = biological target: T2, EphA2-LBD (6xHis-EphA2 ligand-binding domain) (Homo sapiens, UniProt P29317); test: DELFIA displacement of biotinylated EphA2-binding reference peptide; details: DELFIA dose-response; listed as scrambled version of 135H11
T2 construct: made in house

[3] = system: EphA2 in MDA-MB-231 cells; test: EphA2 receptor degradation, Western blot, MDA-MB-231; type: cell-based, human; details: 1 h; 147B5 50 nM to 200 nM with streptavidin 50 nM (n = 1 to 4); scrambled 200 nM; 135H12 50 and 200 nM monomer concentration; ephrinA1-Fc 22 nM monomer (1 μg/mL); total EphA2, anti-EphA2 blot, relative to DMSO, duplicate
[4] = system: EphA2 in BxPC3 cells; test: EphA2 receptor degradation, Western blot, BxPC3; type: cell-based, human; details: 1 h; 147B5 50 nM to 200 nM with streptavidin 50 nM (n = 1 to 4); scrambled 200 nM; 135H12 50 and 200 nM monomer concentration; ephrinA1-Fc 22 nM monomer (1 μg/mL); total EphA2, anti-EphA2 blot, relative to DMSO, duplicate
Source text: (Table 1). […] In these cell-based assays, receptor activation and degradation could be simply monitored by detecting the ability of each agent to reduce EphA2 expression levels over time, after exposure of cells to test ligands. […] Negative controls were DMSO-treated cells or cells treated with the (scrambled 147B5)4-streptavidine complex (Figure 3).
For the control scrambled agent, we tested it at its maximal 4:1 molar ratio with streptavidin. For these experiments we treated cells with increasing concentrations of 147B5 (from 50 nM to 200 nM) in the absence or presence of streptavidin (50 nM). […]
Figure 4 Effect of 147B5 and its complexes with streptavidin at various ratios on EphA2 receptor degradation. […] (b) Densitometry analysis based on duplicate measurements of band intensities relative to the bands of DMSO-treated cells. * p ≤ 0.05, as determined by a one-way analysis of variance using Dunnett post-test analysis. […]
Cells were lysed with cell lysis buffer (20 mM Tris, pH 7.4, 120 mM NaCl, 1% Triton X-100, 0.5% sodium deoxycholate, 0.1% SDS, 1% IGEPAL, 5 mM EDTA), supplemented with EDTA-free Protease Inhibitor Cocktail and PhosStop (Sigma Aldrich) for 15 min on ice. […] Subsequently, Clarity Western ECL solution (BIO-RAD) was added to the blots prior to being imaged on a FluorChem (ProteinSimple) and analyzed with AlphaView software.

[5] = system: EphA2; details: cited from earlier work
[6] = biological target: 6xHis-EphA2 ligand-binding domain; test: DELFIA displacement assay; earlier-generation biotinylated EphA2-binding reference peptide captured on streptavidin-coated 96-well plates; 6xHis-EphA2-LBD and Europium-conjugated anti-6xHis antibody added together with the test agent at various doses; residual fluorescence read after washing
[7] = biological target: 6xHis-EphA2 ligand-binding domain; test: ITC; reverse ITC titration with purified EphA2-LBD

T1 sequence (P29317 28-206 limits assumed): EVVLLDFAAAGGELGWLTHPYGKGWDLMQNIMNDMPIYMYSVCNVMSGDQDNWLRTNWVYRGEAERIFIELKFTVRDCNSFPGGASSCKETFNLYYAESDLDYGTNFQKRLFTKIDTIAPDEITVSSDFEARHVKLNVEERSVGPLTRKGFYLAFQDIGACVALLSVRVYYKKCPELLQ
6xHis-EphA2 ligand-binding domain, sequence (P29317 whole entry, the tested form may be a part): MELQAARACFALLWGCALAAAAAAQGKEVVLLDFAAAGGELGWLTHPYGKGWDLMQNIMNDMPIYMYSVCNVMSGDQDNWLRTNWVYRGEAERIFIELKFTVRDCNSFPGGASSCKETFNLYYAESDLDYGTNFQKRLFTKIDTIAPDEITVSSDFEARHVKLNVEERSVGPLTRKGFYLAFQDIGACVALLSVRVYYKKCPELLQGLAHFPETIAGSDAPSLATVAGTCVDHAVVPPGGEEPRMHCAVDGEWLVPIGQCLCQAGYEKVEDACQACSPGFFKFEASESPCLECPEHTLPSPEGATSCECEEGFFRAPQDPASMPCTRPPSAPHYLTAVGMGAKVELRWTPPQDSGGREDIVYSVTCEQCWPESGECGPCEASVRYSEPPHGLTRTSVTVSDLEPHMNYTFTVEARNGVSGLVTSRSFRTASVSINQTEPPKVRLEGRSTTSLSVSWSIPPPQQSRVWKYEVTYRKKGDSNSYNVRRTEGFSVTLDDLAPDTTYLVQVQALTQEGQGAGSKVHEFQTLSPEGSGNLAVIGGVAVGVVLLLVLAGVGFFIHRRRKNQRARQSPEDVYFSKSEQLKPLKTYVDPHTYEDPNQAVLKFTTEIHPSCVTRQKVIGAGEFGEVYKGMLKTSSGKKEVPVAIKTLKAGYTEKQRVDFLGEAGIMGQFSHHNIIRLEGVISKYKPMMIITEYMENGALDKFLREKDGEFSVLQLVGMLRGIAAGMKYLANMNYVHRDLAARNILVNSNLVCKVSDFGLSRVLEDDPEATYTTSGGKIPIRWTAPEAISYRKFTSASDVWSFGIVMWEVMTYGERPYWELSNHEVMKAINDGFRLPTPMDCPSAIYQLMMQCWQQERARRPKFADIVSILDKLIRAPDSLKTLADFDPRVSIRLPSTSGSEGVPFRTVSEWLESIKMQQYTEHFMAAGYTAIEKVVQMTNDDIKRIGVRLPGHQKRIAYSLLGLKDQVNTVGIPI
T2 sequence (P29317 28-206 limits assumed): as the sequence (P29317 28-206 limits assumed) above

(3-CH3,6,7-OCH3,Benzofuranoic acid)DP(4-CH3-Tyr)A(Hyp)LRG(4-Cl-Phe)PVA-GK(Biotin LC)-CONH2 [Scrambled-147B5, scrambled 135H11-biotinylated (control)]
Kd (ITC) ([1]; N.B. = no binding detected by ITC): N.B. (ITC) | binding to EphA2-LBD by ITC (in words) ([1]; listed as 147B5 scrambled version): no appreciable binding was detected | binding to EphA2-LBD by ITC (in words) ([1]; listed as scrambled version of 147B5): no binding detected

COc1ccc(C[C@H](NC(=O)[C@@H]2CCCN2C(=O)[C@H](CC(=O)O)NC(=O)c2oc3c(OC)c(OC)ccc3c2C)C(=O)N[C@@H](C)C(=O)N2C[C@H](O)C[C@H]2C(=O)N[C@@H](CC(C)C)C(=O)N[C@@H](CCCNC(=N)N)C(=O)NCC(=O)N[C@@H](Cc2ccc(Cl)cc2)C(=O)N2CCC[C@H]2C(=O)N[C@H](C(=O)N[C@@H](C)C(N)=O)C(C)C)cc1 [Scrambled-135H11] ({2Benzofuroyl(3-Me,6,7-diOMe)}-DPY(Me)A[Hyp]LRG[Phe(4-Cl)]PVA-NH2)
inhibition in DELFIA (in words) [2]: no inhibition

B1: ephrinA1-Fc: dimeric ephrinA1-Fc chimera, positive control (protein)
chain: DRHTVFWNSSNPKFRNEDYTIHVQLNDYVDIICPHYEDHSVADAAMEQYILYLVEHEEYQLCQPQSKDQVRWQCNRPSAKHGPEKLSEKFQRFTPFTLGKEFKEGHSYYYISKPIHQHEDRCLRLKVTVSGKITHSPQAHDNPQEKRLAADDPEVRVLHSIGHS
modifications: left off: Fc, end not stated, kept
notes: dimeric ephrinA1-Fc chimera, positive control
EphA2 receptor degradation in MDA-MB-231 cells (in words) [3]: significant degradation of the EphA2 receptor; also recorded: very effective in causing EphA2 degradation | EphA2 receptor degradation in BxPC3 cells (in words) [4]: nearly complete degradation of the EphA2 receptor | receptor degradation, agonistic effectiveness in cells (in words) ([5]; at nanomolar concentrations, ref [5],[28],[29],[30],[31],[34]): dramatically more effective as an agonist | EphA2 dimer formation, activation, internalization, degradation (in words) ([5]; legend of schematic, no reference given): can efficiently induce dimer formation and receptor activation, internalization, and degradation

{2Benzofuroyl(3-Me,6,7-diOMe)}-DP[4‑CH3‑Tyr]A[Hyp]LRG[Phe(4-Cl)]PVA-NH2 [Scrambled-135H11]
IC50 [6]: > 10000 nM

B2: 147B5 (135H11-biotinylated) (peptide)
peptide: LAYPDAVPFRPGK
modifications: N-terminal 3-CH3,6,7-OCH3,Benzofuranoic acid; 4-CH3-Tyr at position 3; Hyp (trans 4-hydroxy-L-proline) at position 8; 4-Cl-Phe at position 9; K(Biotin LC) at position 13 (LC: long 6 atom hydrocarbon chain between the biotin and the amide bond); C-terminal amide (-CONH2)
Kd [7]: 117 nM
